Experimental data: the nanobody polyreactivity screen of Harvey et al. (2022)

Assay: yeast display, Sf9 membrane polyspecificity reagent, FACS + sequencing; frameworks hold sequencing errors
In short: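 Nanobodies from a synthetic yeast display library (Saccharomyces cerevisiae BJ5465), induced 36–48 hours with galactose, were stained 1 hour at 4 °C with 10% biotinylated, detergent-solubilized Sf9 membrane reagent, enriched on streptavidin microbeads, then FACS-sorted. Anti-HA (expression) and streptavidin (reagent binding) fluorescence set low and high (top ~1%) gates. Polyreactivity labels come from the gate of origin. Genes were colony-PCR amplified, MiSeq 2 × 250 sequenced and filtered by CDR length.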

Sequence	polyreactivity (PSR sort gate)
QVQLVESGGGLVQAGGSLRLICAASGFTFRRYAMGWYRQAPGKEREFVAVITWSGTRTYYADSVKGRFTISRDNAKNTVYLQMNSLKPEDTAVYYCAAYITDVAGRAYDYWGQGTQVTVSS	high polyreactivity
QVQLVESGGGLVQAGGSLRLICAASGFTFSQYAMGWYREAPGKERELVAAISWNGGSTYYADSVKGRFTISRDNAKNTVYLQMNSLKPEDTAVYYWNRRWPFVRFYYWGQGTQVTVSS	high polyreactivity
QVQLVESGGGLVQAGGSLRLICAASGFTFVANAMGWYRQAPGKERELVAVIDWDDGSTYYADSVKGRFTISRDNAKNTVYLQMYSLKPEDTAVYYCARDVYASPRLYTSRYNYWGQGTQVTVSS	low polyreactivity
QVQLVESGGGLVQAGGSLRLICAASGFTFYKYTMGWYRQAPGKERELVAAISARGGSTYYADSVKGRFTISRDNAKNTVYLQMNSLKPEDTAVYYCAADYWRTYGLGYDYWGQGTQVTVSS	high polyreactivity
QVQLVESGGGLVQAGGSLRLICAASGFTIWFNAMGWYRQAPWKERDLVATIRGSGGTTYYAYSVKGRFTISRDNAKNTVYLQMNSLKPEDTAVYYCAAEGSFRKFDYCGQGTQVTVSS	low polyreactivity
QVQLVESGGGLVQAGGSLRLICAASGFTIYRYAMGWYRQAPGKERELVATIRRGGSTKYADSVKGRFTISRDNAKNTVYLQMNSLKPEDTAVYYCNARYYAAPDKYYYWGQGTQVTVSS	low polyreactivity
QVQLVESGGGLVQAGGSLRLICAASGFTLADNGMGWYRQAPGKERELVATISGGGSTNYADSVKGRFTISRDNAKNTVYLQMISLKPEDTAVYYCAKEGRYSWYTLSEYDYWGQGTQVTVSS	low polyreactivity
QVQLVESGGGLVQAGGSLRLICAASGFTLTRNAMGWYRQAPGKESELVAAISWSGGTTYYADSVKGRFTISRDNAKNTVYLQMNSLKPEDTAFYYCNTASWRDQYYYWGQVTQVTVSS	high polyreactivity
QVQLVESGGGLVQAGGSLRLICAASGGIFYVNAMGWYRQAPGKERELVADIRYSGTSTYYADSVKGRFTISRDNAKNTVYLQMNSLKPEDTAVYYCAVDAWDTTLVYEQGAERDSWGQGTQVTVSS	low polyreactivity
QVQLVESGGGLVQAGGSLRLICAASGIIFAVYARGCYRQAPGKERELVAAISTSGGRTDYADSVKGRFTISRDNAKNTVYLQMNSLKPEDTAVYYCAAEYVGKGTPDDYDYWGQGTQVTVSS	high polyreactivity
QVQLVESGGGLVQAGGSLRLICAASGIIFGNNAMGRYRQAPGKERELVAAIRWSTGTTYYADSVKGRFTISRDNATNTVYLQMNSLKPEDTAVYYCAARLRREYGYWGQGTQVTVSS	high polyreactivity
QVQLVESGGGLVQAGGSLRLICAASGIIFRSYAMGWYRQAPGKERELVAGISLSGGSTYYADSVKGRFTISRDNAKNTVYLQMNSLKPEDTAVYYCAARRRYKSGYWGQGTQVTVSS	high polyreactivity
QVQLVESGGGLVQAGGSLRLICAASGIIFRVYAMGWYRQAPGKERELVATITWSGGSTFYADSVKGRFTISRDNAKNTVDLQRNSLKPEDTAVYYCAARGYLRGEQLYVLIRYDYWGQGTQVTVSS	low polyreactivity
QVQLVESGGGLVQAGGSLRLICAASGIIFTGYTMGWYRPAPGKERELVAAITWRGGSTYYADSVKGRFTISRDNAKNTVYLQMNSLKPEDTAVYYCAAEGWYSWDDDYWGQGTQVTVSS	low polyreactivity
QVQLVESGGGLVQAGGSLRLICAASGIIFYKYTMGWYRQAPGKERELVAAITKSGVRTYYADSVKGRFTISRDNAKNTVYLQMNSLKPEDTAVYYCAAKTPTKDRGSDFDYWGQGTQVTVSS	high polyreactivity
QVQLVESGGGLVQAGGSLRLICAASGIIFYRYAMGWYRQAPGKEREFVAAISRGGGSTYYADSVKGRFTISRDNAKNTVYLQMNSLKPEDTAVYYCNARVTRVTVDQYSIKSMDYWGQGTQVTVSS	high polyreactivity
QVQLVESGGGLVQAGGSLRLICAASGIILFYAMGWYRQAPGKERELVAAISSGGGTSYADSVKGRFTLSRDNAKKTVYLQMNSLKPEDTAVYYCAKTDGFYRGDGYWGQGTQVNVSS	low polyreactivity
QVQLVESGGGLVQAGGSLRLICAASGITFTGYAMGWYREAPGKEREVVAPISKRGARTYYADSVKGRFTISRDNAKHTVYVQMNSLQPEDTAVYYCAVRRWGYWTGYRGLDYDYWGQGTQVTVSS	high polyreactivity
QVQLVESGGGLVQAGGSLRLICAASGITFTQYAMGWYRQAPGNEREFVAGITISGSSTYYADSVKGRFTISRDNAKNTVYLQMNRLKPEDTAVYYCAAGVRRVYASGHGAYGYWGQGTQVTVSS	low polyreactivity
QVQLVESGGGLVQAGGSLRLICAASGLIFPRYDMGWYRQAPGKERELVAAITSGGGTYYADSVKGRFTISRDNAKNTVYLQMNSLKPEDTAVYYCARDHYRHSRYFYRYDYWGQGTQVTVSS	low polyreactivity
QVQLVESGGGLVQAGGSLRLICAASGLILKYYAMGWYRQAPGKEREFVAAITRRGGITYYADSVKGRFTISRDNAKNTVYLQMNSLKPEDTAVYYCAADPKLGSLAYWRYSYPLYDYWGQGTQVTVSS	low polyreactivity

Sequence	polyreactivity (PSR sort gate)
QVQLVESGGGLVQAGGSLRLICAASGLTFTKYAMGWYRQAPGKERELVATITSGGSTNYADSVKGRFTISRDNAKNTVYLQMNSLKPEDTAVYYCNRDNYKWPYWEFDYWGQGTQVTVSS	high polyreactivity
QVQLVESGGGLVQAGGSLRLICAASGLTFYYYAMGWYRQAPGKERELVAASSTRGTSTYYADSVKGRFTISRDNSKNTVYLQMNSLKPEDTAVYYCAADSYPCGTGGDYWGQGTQVTVSS	high polyreactivity
QVQLVESGGGLVQAGGSLRLICAASGNIFDVNAMGLYRQAPGKERELVAGITTNGGRTFYADSVKGRFTFSRDNAKNTVYLQMNSLKPEDTAVYYWNARHGRHRRTPFAKYDFWGQGTQVTVSS	high polyreactivity
QVQLVESGGGLVQAGGSLRLICAASGNTFYRNAMGLYRQAPGKERELVAAIDYSAGSTYYADSVKWRFTISRDNAKYSVFFQMKSLNPEDTAVYYCAADARTSRGGRYYYWGQGTQVTVSS	low polyreactivity
QVQLVESGGGLVQAGGSLRLICAASGRIFAYYAMGWYRHAPGKERELVAAISGSGRTYYADSVKGRFTISRDNAKYTVYLQMNSLKPEDTAVYYCNNVYSFYYTEGYDYWGQVTQVTVSS	high polyreactivity
QVQLVESGGGLVQAGGSLRLICAASGRIFDGYAMGWYRQAPGKERELVAAISSDGGSTNYADSVKGRFTISRDNAKNTVYLQMNSLKPEDTAVYYCAESRLGEYLGYDYWGQGTQVTVSS	low polyreactivity
QVQLVESGGGLVQAGGSLRLICAASGRIFGTNAKGWYRQAPGKERELVADITSGGSTNYADSVKGRFTISRDNAKNTVYLQMNSLKPEDTAVYYCAADVIGDLRWYRDEYWGQGTQVTVSS	low polyreactivity
QVQLVESGGGLVQAGGSLRLICAASGRIFLTYAMGWYRQAPGKERELVAAISTSGTRTYYADSVKGRFTISRDTAKKTVYLQMNSLKPEDTAVYHCAREKYNYRTYEYWGQGTQVTVSS	high polyreactivity
QVQLVESGGGLVQAGGSLRLICAASGRIFPSNAMGGSIQAPGKERELVAAINTGGSTYYADSVKGRFTISRDNAKNTVYLQMNSQKPEDTAVYYCAAARRYYYYWGQGTQVTVSS	high polyreactivity
QVQLVESGGGLVQAGGSLRLICAASGRIFRYYAMGWSRQAPGKERELVAAIRSASSTYYADSVNGRFTISRDNAKITVYLKMNSLIPEDTSVYYCADRLYGVYKRRYYYWGQGTQVTVSS	high polyreactivity
QVQLVESGGGLVQAGGSLRLICAASGRIFVPYVMGWYRQAPGKERELVASISDSDTSTYYADSVKGRFTISRDNAKNTVYLQMNSVKPEDTAVYYCNVDYWGQGTQVTVSS	low polyreactivity
QVQLVESGGGLVQAGGSLRLICAASGRIFVYYAMGWYRQAPGKERELVAAISSGGSTYYADSVKGRFTISRDNAKNTVYLQMNSLKPEDTAVYYCAADPQRGRRIGYYWGQGTQVTVSS	low polyreactivity
QVQLVESGGGLVQAGGSLRLICAASGRILDNYAMGWYRQAPGKERELVAAISASGASTYYADSVKGRFTISRDNAKNTVYLQMNSLKPEDTAVYYCNAAARYRWQYDYSLYEYGHWGQGTQVTVSS	high polyreactivity
QVQLVESGGGLVQAGGSLRLICAASGRTFAGNAMGWYRQAPGKERELVAAISQGGGYTYYADSVKGRFTISRDNAKNNVYLQMNSLKPEDTAVYYCAAEIPRRWASFATLWYDYLGQGTQVTVSS	low polyreactivity
QVQLVESGGGLVQAGGSLRLICAASGRTFGTHTMGWYRQAPGKERELVAAISSRGGTTYYADSVKGRFTISRDNAKNTVYLQMNSLKPEDTAVYYSNTGTRAIQRDGFEYWGQGTQVTVSS	low polyreactivity
QVQLVESGGGLVQAGGSLRLICAASGRTFKRYVIGWYRQAPRKERELVATITRGGSTTYADSVKGRFTISRDNAKNTVFLQMNSLKPEDTAVYYCIADLYQVYLSDYWGQGTQVTVSS	high polyreactivity
QVQLVESGGGLVQAGGSLRLICAASGRTFRYNAMGWYRQAPGKERELVASITSGGSTNYADSVKGRFTISRDHAKNTVYLQMNSLKPEDTAVYYCAKDHYYRYEDGDYWGQGTQVTVSS	low polyreactivity
QVQLVESGGGLVQAGGSLRLICAASGRTFSFYARVWYRQAPGKETEFVAAITGSGGSTYYADSVKGRFTISRDNAKNTVYLKMNSLKPEDTAVYYCAKRSAWHTYRYGYWGQGTQVTVSS	high polyreactivity
QVQLVESGGGLVQAGGSLRLICAASGRTFSGNTMGWYRQAPGKERELVAAITGRGGSTYYADSVKGRFTISRDNAKNTVYLQMNSLKPEDTAVYYCAALRYTFAGRFDYWGHGTQVTVSS	high polyreactivity
QVQLVESGGGLVQAGGSLRLICAASGRTFSNAMGWYRQAPGKERELVADISSGGSPNYADSVKGRFTISRDNAKNTVYLEINSLKPEDTAVYYCAAFSGCLYGYSDDYWGQGTQVTVSS	low polyreactivity
